Numbering of substitutions follows the chain as printed. Names may count otherwise. Each block holds one binder with its values, some of them ahead of it.
Legend:
[1] = target: T1, purified murine FAP antigen (murine, UniProt P97321 26-761, limits assumed); assay: ELISA, cross-reactivity (FIG. 57A)
[2] = target: T2, purified human FAP antigen (human, UniProt Q12884 26-760, limits assumed); assay: ELISA, plate coated with purified human FAP antigen (FIG. 56F-56G)
Protocol: (§1) Binding kinetics of the novel antigen binding constructs to a purified human FAP antigen was assessed using ELISA. For this assay, a 96 well ELISA plate was coated with the human-FAP antigen diluted to a concentration of 2 mg/mL in coating buffer (0.05M sodium carbonate-bicarbonate buffer, pH 9.6). 100 μl of this coating solution was added to each well in the plate and incubate at 4° C. overnight. The plate was washed 3 times with 300 μl per well of washing buffer (PBS with 0.05% Tween-20). After the last wash, the plate was blocked by adding to each well 200 μl of blocking buffer (PBS with 1% BSA) warmed to room temperature. The plate was then incubated at room temperature for 1 hour under gentle agitation. After blocking, the plate was washed 3 times with 300 μl per well of washing buffer. Dilution samples for each minibody were created by making 2.5× dilutions from a starting sample at 100 ng/mL, or 250 ng/mL, or 1000 ng/mL or 3000 ng/mL in 100 μL sample buffer (PBS with 1% BSA). The dilution samples were transferred to the assay plate and incubated at room temperature for 1 hour under gentle agitation. The plate was then washed 3 times with 300 μl per well of washing buffer.
(§2) Detection was performed by adding 100 μl of HRP labeled detection secondary antibody at an appropriate dilution and incubating the plate at room temperature for 1 hour under gentle agitation. The plate was then washed 3 times with 300 μl per well of washing buffer. For color development, 100 μl of TMB substrate regent, pre-warmed to room temperature, was added to the plate and incubated in the dark at room temperature for 15 min. The reaction was then stopped by adding 100 μl of 650 nm stop solution to the plate and mixed for 1 min at room temperature under gentle agitation. The plate is recorded by reading OD at 650 nm in a plate reader within 20 min after terminating the reaction.

FAP = FAP (UniProt Q12884 26-760, limits assumed); assay: binding kinetics, method not stated (FIG. 42B)
[3] = target: T1, purified murine FAP antigen; assay: ELISA, cross-reactivity (FIG. 57B)
[4] = target: T2, purified human FAP antigen; assay: ELISA, plate coated with purified human FAP antigen (FIG. 56A-56C)
Protocol: as §1, §2

[5] = target: T2, purified human FAP antigen; assay: ELISA, plate coated with purified human FAP antigen (FIG. 91B)
Protocol: as §1

[6] = target: T1, purified murine FAP antigen; assay: ELISA, cross-reactivity (FIG. 92)
[7] = target: T2, purified human FAP antigen; assay: ELISA, plate coated with purified human FAP antigen (FIG. 91E)
Protocol: as §1

[8] = target: T2, purified human FAP antigen; assay: ELISA, plate coated with purified human FAP antigen (FIG. 91D)
Protocol: as §1

[9] = target: T2, purified human FAP antigen; assay: ELISA, plate coated with purified human FAP antigen (FIG. 91F)
Protocol: as §1

T1 sequence (P97321 26-761 limits assumed): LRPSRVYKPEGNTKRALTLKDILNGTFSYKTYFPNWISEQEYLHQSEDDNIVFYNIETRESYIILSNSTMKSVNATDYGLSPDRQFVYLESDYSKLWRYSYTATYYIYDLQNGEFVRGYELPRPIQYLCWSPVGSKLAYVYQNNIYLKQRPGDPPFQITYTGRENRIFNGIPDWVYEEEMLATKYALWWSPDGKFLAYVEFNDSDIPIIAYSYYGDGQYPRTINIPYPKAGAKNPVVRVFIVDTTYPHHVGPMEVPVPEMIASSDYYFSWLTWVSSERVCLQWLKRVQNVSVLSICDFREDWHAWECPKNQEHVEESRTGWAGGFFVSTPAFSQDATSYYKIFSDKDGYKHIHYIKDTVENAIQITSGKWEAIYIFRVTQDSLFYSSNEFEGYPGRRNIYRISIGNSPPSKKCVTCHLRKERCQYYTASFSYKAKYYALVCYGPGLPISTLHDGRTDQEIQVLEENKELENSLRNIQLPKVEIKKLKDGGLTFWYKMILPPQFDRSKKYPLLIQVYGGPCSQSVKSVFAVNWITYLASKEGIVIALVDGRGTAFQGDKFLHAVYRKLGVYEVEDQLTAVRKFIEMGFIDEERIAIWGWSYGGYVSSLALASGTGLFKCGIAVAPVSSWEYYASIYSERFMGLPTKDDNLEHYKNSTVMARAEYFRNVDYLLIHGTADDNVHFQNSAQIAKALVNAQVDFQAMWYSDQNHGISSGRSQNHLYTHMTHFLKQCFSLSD

B2: IAB16M2-37 (other)
chain: QVQLVQSGAEVKKPGASVKVSCKASGYTFTEYTIHWVRQAPGQRLEWIGGINPNNGIPNYNQKFKGRVTITVDTSASTAYMELSSLRSEDTAVYYCARRRIAYGYDEGHAMDYWGQGTLVTVSSGSTSGGGSGGGSGGGGSSDIVMTQSPDSLAVSLGERATINCKSSQSLLYSRNQKNYLAWYQQKPGQPPKLLIFWASTRESGVPDRFSGSGSGTDFTLTISRLEPEDFAVYYCQQYYSYPLTFGQGTKVEIKEPKSSDKTHTCPPCPPCGGGSSGGGSGGQPREPQVYTLPPSREEMTKNQVSLTCLVKGFYPSDIAVEWESNGQPENNYKTTPPVLDSDGSFFLYSKLTVDKSRWQQGNVFSCSVMHEALHNHYTQKSLSLSPG
notes: also called IAB16B2-37
Kd (FAP): 1.15 nM
koff (FAP): 0.00108 s⁻¹
kon (FAP): 935000 M⁻¹ s⁻¹
fold change of KD, murine FAP against human FAP [3]: ~10 fold
Kd [4]: ~0.1 nM

B3: IAB16M2-43 (other)
chain: QVQLQESGPGLVKPSETLSLTCTVSGFSLTNYDINWIRQPPGKGLEWIGLIWTGGGTNYNPSLKSRVTISKDTSKNQFSLKLSSVTAADTAVYYCVRGGPLVWYALDYWGQGTLVTVSSGSTSGGGSGGGSGGGGSSDIQMTQSPSSLSASVGDRVTITCKASQDVSTAVAWYQQKPGKAPKLLIYSASYRYTGVPSRFSGSGSGTDFTFTISSLQPEDIATYYCQQHYSNPRTFGGGTKVEIKEPKSSDKTHTCPPCPPCGGGSSGGGSGGQPREPQVYTLPPSREEMTKNQVSLTCLVKGFYPSDIAVEWESNGQPENNYKTTPPVLDSDGSFFLYSKLTVDKSRWQQGNVFSCSVMHEALHNHYTQKSLSLSPG
Kd [5]: ~0.1 nM
binding result [6]: binds

B7: IAB16M2-48 (other)
chain: QVQLVQSGAEVKKPGSSVKVSCKASGFSLTNYDINWVRQAPGQGLEWMGLIWTGGGTNYNQKFQGRVTITKDNSTSTAYMELSSLRSEDTAVYYCVRGGPLVWYALDYWGQGTLVTVSSGSTSGGGSGGGSGGGGSSDIQMTQSPSSLSASVGDRVTITCKASQDVSTAVAWYQQKPGKAPKLLIYSASYRYTGVPSRFSGSGSGTDFTLTISSLQPEDFATYYCQQHYSNPRTFGQGTKVEIK
Kd [8]: ~0.1 nM

B8: IAB16M1-42 (other)
chain: DIQMTQSPSSLSASVGDRVTITCKASQDVSTAVAWYQQKPGKAPKLLIYSASYRYTGVPSRFSGSGSGTDFTFTISSLQPEDIATYYCQQHYSNPRTFGGGTKVEIKGSTSGGGSGGGSGGGGSSQVQLQESGPGLVKPSETLSLTCTVSGFSLTNYDINWIRQPPGKGLEWIGLIWTGGGTNYNPSLKSRVTISKDTSKNQFSLKLSSVTAADTAVYYCVRGGPLVWYALDYWGQGTLVTVSSEPKSSDKTHTCPPCPPCGGGSSGGGSGGQPREPQVYTLPPSREEMTKNQVSLTCLVKGFYPSDIAVEWESNGQPENNYKTTPPVLDSDGSFFLYSKLTVDKSRWQQGNVFSCSVMHEALHNHYTQKSLSLSPG
Kd [5]: ~0.1 nM

Next, values leading:

binding result [1]: binds
Kd [2]: ~1 nM
B1: IAB16C3-26 (other)
chain: EIVLTQSPGTLSLSPGERATLSCRASQSVSRSYLAWYQQKPGQAPRLLIIGASTRATGIPDRFSGSGSGTDFTLTISRLEPEDFAVYYCQQGQVIPPTFGQGTKVEIKGGGSGGGGEVQLLESGGGLVQPGGSLRLSCAASGFTFSSHAMSWVRQAPGKGLEWVSAIWASGEQYYADSVKGRFTISRDNSKNTLYLQMNSLRAEDTAVYYCAKGWLGNFDYWGQGTLVTVSSGGCPPCPPC

Kd [7]: ~0.1 nM
B4: IAB16M2-52 (other)
chain: B3 chain with Q140V

Kd [8]: ~0.1 nM
B5: IAB16M2-51 (HC-N76S) (other)
chain: B3 chain with T73N

Kd [7]: ~0.1 nM
B6: IAB16M2-53 (other)
chain: B3 chain with N76S

Kd [9]: ~10 nM
B9: IAB16M2-50 (other)
chain: DVQLVESGGGLVKPGGSLRLSCTVSGFTFSSYTMSWVRQAPGKGLEWVSTISSGGSYTYYADSVKGRFTISRDNAKNSLYLQMNSLRAEDTAVYYCTRDQVGYAMDYWGQGTLVTVSSGSTSGGGSGGGSGGGGSSDIQMTQSPSSLSASVGDRVTITCKASQDVGIAVAWYQQKPGKAPKLLIYWASTRHTGVPSRFSGSGSGTDFTFTISSLQPEDIATYYCQQYSRYPYTFGQGTKLEIKEPKSSDKTHTCPPCPPCGGGSSGGGSGGQPREPQVYTLPPSREEMTKNQVSLTCLVKGFYPSDIAVEWESNGQPENNYKTTPPVLDSDGSFFLYSKLTVDKSRWQQGNVFSCSVMHEALHNHYTQKSLSLSPG

Reference: US20240390531A1 (IMAGINAB, published 2024)
